Where no end group is shown, it is not given here. [ ]: non-standard residue; d: D form. I2aa = indolizidin-2-one amino acid (2-oxo-3-amino-azabicyclo[4.3.0]nonane-9-carboxylic acid), a dipeptide surrogate; dOrn = NCCC[C@@H](N)C(=O)O
B1: API-101.110 (peptide)
peptide: [dR][dY][I2aa][dE][dL][dA]-NH2
B2: TTI-101.124 (peptide)
peptide: [dR][dY]X[dE][dL]
modifications: not fully specified (residue 3); printed as ry[R-I2aa]el
B3: TTI-101.125 (peptide)
peptide: [dOrn][dY]X[dE][dL][dA]
modifications: not fully specified (residue 3); printed as (D-orn)y[R-I2aa]ela

Key:
[1] = biological target: IL-1R/IL-1RacP receptor on porcine cells and vessels (porcine (piglet)); test: cell-based or functional assay
[2] = biological target: IL-1R/IL-1RacP receptor (cells or tissue whose species is not stated); test: cell-based or functional assay
Chain of IL-1R/IL-1RacP receptor (cells or tissue whose species is not stated) (P14778 whole entry, chain 1 of 2): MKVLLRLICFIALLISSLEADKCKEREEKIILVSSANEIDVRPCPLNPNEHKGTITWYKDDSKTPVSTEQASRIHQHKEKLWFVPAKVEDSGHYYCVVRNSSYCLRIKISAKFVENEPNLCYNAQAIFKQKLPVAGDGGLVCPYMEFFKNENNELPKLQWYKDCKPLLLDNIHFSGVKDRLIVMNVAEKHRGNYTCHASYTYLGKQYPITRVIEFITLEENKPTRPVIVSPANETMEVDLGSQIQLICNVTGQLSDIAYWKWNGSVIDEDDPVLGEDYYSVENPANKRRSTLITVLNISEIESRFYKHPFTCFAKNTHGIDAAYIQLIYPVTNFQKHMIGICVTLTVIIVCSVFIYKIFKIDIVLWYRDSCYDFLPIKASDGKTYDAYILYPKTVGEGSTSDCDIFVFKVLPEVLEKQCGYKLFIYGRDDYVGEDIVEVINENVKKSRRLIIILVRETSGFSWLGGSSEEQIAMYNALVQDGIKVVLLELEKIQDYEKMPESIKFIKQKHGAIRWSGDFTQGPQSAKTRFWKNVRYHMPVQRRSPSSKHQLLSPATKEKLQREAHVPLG
Chain of IL-1R/IL-1RacP receptor (cells or tissue whose species is not stated) (Q9NPH3 whole entry, chain 2 of 2, further chain): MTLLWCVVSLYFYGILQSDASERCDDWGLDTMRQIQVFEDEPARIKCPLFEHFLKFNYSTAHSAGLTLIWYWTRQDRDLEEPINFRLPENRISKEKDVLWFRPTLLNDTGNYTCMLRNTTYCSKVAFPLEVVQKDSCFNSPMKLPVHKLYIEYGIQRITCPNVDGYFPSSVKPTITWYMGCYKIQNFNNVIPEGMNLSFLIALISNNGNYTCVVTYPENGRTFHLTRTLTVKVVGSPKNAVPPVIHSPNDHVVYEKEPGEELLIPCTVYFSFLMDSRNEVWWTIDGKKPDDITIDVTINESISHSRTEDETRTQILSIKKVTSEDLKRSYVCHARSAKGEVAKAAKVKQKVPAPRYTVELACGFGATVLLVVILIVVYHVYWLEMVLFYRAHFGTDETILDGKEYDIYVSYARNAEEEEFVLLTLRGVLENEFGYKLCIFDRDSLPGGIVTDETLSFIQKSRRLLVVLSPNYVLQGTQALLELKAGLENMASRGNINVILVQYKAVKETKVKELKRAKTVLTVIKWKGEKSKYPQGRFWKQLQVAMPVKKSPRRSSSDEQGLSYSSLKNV

Binder	IC50, IL-1-induced PGE2 synthesis, endothelial cells [1] [nM]	fold potency against API-101.107, IL-1-induced PGE2 synthesis, endothelial cells [1] [fold]	activity (FIG. 26; assay not given) [2] [pM]	IC50 (FIG. 26; assay not given) [2] [nM]	efficacy (FIG. 26; assay not given) [2] [%]
B1	0.0002	10	10	–	–
B2	–	–	–	2400	100
B3	–	–	–	0.09	100
